Data from patent US20240343823A1 (Ablynx, published 2024).

Legend:
[1] = target: T1, human GPC3 on tumor cell lines (HepG2, Huh-7, NCI-H661, MKN-45, NCI-H23, BxPC-3, NCI-H292) (human, UniProt P51654 25-554); experiment: cell-based or functional assay
[2] = target: T1, human GPC3 on tumor cell lines (HepG2, …); experiment: cell-based or functional assay; remark: listed apart in the source
[3] = target: T2, Human GPC1 (R&D systems, cat no 4519-GP) (human, UniProt P35052 24-530, limits assumed); experiment: ELISA, GPC1 coated at 2 ug/mL
T2 construct: Bought
T2 sequence (looked up): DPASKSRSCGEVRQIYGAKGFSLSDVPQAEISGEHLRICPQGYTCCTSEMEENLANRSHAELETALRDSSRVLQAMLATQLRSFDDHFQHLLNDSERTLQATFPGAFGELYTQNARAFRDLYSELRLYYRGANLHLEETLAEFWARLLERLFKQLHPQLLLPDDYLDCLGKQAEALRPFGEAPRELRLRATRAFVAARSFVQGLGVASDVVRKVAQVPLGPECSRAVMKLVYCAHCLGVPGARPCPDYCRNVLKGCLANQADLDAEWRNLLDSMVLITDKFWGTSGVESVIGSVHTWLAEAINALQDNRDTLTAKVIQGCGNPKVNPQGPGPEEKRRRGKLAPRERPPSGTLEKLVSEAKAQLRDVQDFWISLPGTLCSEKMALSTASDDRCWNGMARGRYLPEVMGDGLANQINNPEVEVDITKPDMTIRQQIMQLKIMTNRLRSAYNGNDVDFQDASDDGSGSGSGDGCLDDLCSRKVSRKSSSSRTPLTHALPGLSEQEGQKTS
Method: (§1) Human GPC1 (R&D systems, cat no 4519-GP), human GPC2 (R&D systems, cat no 2304-GP), human GPC3 (R&D systems, cat no 2119-GP), human Glypican-5 (R&D systems, cat no 2607-G5) and human Glypican-6 (R&D systems, cat no 2845-GP) were directly coated overnight at 4° C. (2 μg/mL, 1×PBS buffer) on a 384-well HB SpectraPlate (PerkinElmer). The following day the plate was washed 6 times (AquaMax microplate washer, Molecular devices) and blocked with 1×PBS+1% Casein for 2 hours at room temperature. […] After 6 final wash steps the es(HS)TMB substrate (SDT) was added and the reaction stopped by addition of 1 M HCl after 10 minutes. The absorbance of the plate was measured at wavelengths 450 and 620 nm on the Clariostar instrument (BMG LABTECH) and the OD₄₅₀-OD₆₂₀ calculated and plotted for data analysis.

[4] = target: T3, human Glypican-5 (R&D systems, cat no 2607-G5) (human, UniProt P78333 25-553, limits assumed); experiment: ELISA, Glypican-5 coated at 2 ug/mL
T3 construct: Bought; also called GPC5
T3 sequence (looked up): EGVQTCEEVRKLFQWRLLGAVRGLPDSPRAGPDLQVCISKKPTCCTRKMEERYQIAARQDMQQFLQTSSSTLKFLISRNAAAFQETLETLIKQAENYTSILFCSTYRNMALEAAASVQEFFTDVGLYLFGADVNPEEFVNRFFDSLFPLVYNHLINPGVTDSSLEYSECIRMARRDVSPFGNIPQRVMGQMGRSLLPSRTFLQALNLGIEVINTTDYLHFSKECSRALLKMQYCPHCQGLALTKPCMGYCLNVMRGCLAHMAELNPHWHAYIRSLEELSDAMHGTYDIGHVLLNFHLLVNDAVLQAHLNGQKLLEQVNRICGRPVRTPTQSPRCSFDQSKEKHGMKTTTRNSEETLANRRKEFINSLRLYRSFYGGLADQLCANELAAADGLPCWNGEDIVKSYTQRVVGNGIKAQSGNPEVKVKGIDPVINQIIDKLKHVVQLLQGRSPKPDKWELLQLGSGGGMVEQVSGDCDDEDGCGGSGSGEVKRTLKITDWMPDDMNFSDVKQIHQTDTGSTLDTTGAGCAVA
Method: as §1

[5] = target: T4, human Glypican-6 (R&D systems, cat no 2845-GP) (human, UniProt Q9Y625 24-529, limits assumed); experiment: ELISA, Glypican-6 coated at 2 ug/mL
T4 construct: Bought; also called GPC6
T4 sequence (looked up): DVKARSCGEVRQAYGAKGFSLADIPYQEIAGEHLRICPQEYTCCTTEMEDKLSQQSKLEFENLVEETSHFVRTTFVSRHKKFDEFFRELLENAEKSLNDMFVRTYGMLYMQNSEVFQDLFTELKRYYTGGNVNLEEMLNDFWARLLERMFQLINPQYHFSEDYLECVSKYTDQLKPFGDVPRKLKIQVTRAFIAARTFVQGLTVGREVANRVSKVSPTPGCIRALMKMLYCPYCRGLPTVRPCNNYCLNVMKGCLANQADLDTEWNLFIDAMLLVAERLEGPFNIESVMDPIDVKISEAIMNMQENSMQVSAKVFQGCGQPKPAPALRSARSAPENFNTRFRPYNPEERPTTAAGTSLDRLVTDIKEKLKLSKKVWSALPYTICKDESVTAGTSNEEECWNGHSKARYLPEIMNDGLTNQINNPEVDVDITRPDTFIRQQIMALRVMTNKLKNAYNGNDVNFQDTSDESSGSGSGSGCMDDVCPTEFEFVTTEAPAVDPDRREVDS
Method: as §1

[6] = target: T5, human GPC3 expressed on CHO Flp-In cells (human, UniProt P51654 25-554); experiment: flow cytometry on CHO Flp-In human GPC3 cells
T5 construct: On cells; Q25-R358, S359-H580; also called hGPC3 CHO; CHO huGPC3

B1: A022600424 (other)
chain: DVQLVESGGGVVQPGGSLRLSCVASGYVHKINFYGWYRQAPGKEREKVAHISIGDQTDYADSAKGRFTISRDESKNTVYLQMNSLRPEDTAAYYCRALSRIWPYDYWGQGTLVTVSSGGGGSEVQLVESGGGVVQPGGSLRLSCAASGFTFSSFAMTWVRRPPGKGLEWVATITNKGVTSYADSVKGRFTISRDNAKNTLYLQMNSLRPEDTALYICANARRTGPRAPTDIGSYRGQGTLVTVSSGGGGSGGGSEVQLVESGGGVVQPGGSLRLSCAASGSIFRSVFSSSTMEWYRQAPGKKRELVARIAPGEGTYYGALYADSVKGRFTISRDNAKNTVYLQMNSLRPEDTALYYCASGVAWGQGTLVTVSSGGGGSGGGSEVQLVESGGGVVQPGGSLRLSCAASGFTFRSFGMSWVRQAPGKGPEWVSSISGSGSDTLYADSVKGRFTISRDNSKNTLYLQMNSLRPEDTALYYCTIGGSLSRSSQGTLVTVSSA
notes: Trispecific tetravalent ISVD (VHH) T-cell engager: anti-TCR, two anti-GPC3 (biparatopic), anti-albumin; also called TCE01-5GS-A022600351-9GS-A022600314-9GS-ALB23002-A
IC50 (M) BxPC-3, xCELLigence human TDC assay [1]: > 1e-07 M | IC50 (M) HepG2, xCELLigence human TDC assay [1]: 1.15e-10 M | IC50 (M) Huh-7, xCELLigence human TDC assay [1]: 1.16e-10 M | IC50 (M) NCI-H23, xCELLigence human TDC assay [1]: > 1e-07 M | IC50 (M) NCI-H661, xCELLigence human TDC assay [1]: 1.14e-10 M | IC50 (M), xCELLigence TDC assay on Huh-7, Primary cy T cells [2]: 2.29e-10 M | IC50 (M), xCELLigence TDC assay on Huh-7, Primary hu T cells [2]: 7.59e-11 M | binding result [3]: no binding | binding result [4]: no binding | binding result [5]: no binding | EC50 [6]: 1.82 nM
